{
  "source": "paper PMC8693972",
  "about": "(Molecular Biology of the Cell, 2021)",
  "binders": {"B1": {"name": "fluorescent Qb-SNARE domain (cysteine-tagged synthetic SNARE domain of the Qb-SNARE Vti1) (domain or fragment)", "chain": "HAILQKSGDRLKDASRIANETEGIGSQIMMDLRSQRETLENARQTLFQADSYVDKSIKTLKTM", "modifications": "also: cysteine tag with fluorophore (Alexa-568), tag not in given chain"}},
  "biological_target": "T1, fluorescently labeled Qc-SNARE Vam7 (yeast, UniProt P32912 1-316, labeled with a fluorophore distinct from that of Qb)",
  "T1 sequence": "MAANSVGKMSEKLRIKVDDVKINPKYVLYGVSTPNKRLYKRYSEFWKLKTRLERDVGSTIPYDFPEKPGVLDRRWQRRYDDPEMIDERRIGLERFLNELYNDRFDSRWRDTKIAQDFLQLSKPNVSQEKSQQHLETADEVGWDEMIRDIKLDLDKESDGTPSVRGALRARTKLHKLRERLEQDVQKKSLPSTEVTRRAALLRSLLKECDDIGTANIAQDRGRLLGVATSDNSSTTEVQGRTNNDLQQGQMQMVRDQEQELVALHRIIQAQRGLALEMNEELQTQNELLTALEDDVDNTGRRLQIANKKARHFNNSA",
  "experiment": "FRET or BRET",
  "data": [
    {"binder": "B1", "values": [
      {"measurement": "fold faster FRET with sQa than without sQa", "result": 100, "unit": "fold"}
    ]}
  ]
}
